Assay results: paper PMC4859152 (The Biochemical journal, 2015)
Numbering of substitutions follows the chain as printed.

B1: WT Prx3, hyperoxidized dimer (enzyme, human, UniProt P30048 62-256, looked up)
chain: APAVTQHAPYFKGTAVVNGEFKDLSLDDFKGKYLVLFFYPLDFTFVCPTEIVAFSDKANEFHDVNCEVVAVSVDSHFSHLAWINTPRKNGGLGHMNIALLSDLTKQISRDYGVLLEGSGLALRGLFIIDPNGVIKHLSVNDLPVGRSVEETLRLVKAFQYVETHGEVCPANWTPDSPTIKPSPAASKEYFQKVNQ
modifications: per dimer: one Cys-Sp as sulfinic acid (SpO2-), the other active site a Cys-Sp to Cys-Sr disulfide
B2: CT* Prx3, oxidized (as purified) (enzyme, human, UniProt P30048 62-256, looked up)
chain: B1 chain with N171G, T173K, D175G, P177D
modifications: oxidized form (inter-subunit disulfides)
B3: WT Prx3, oxidized (disulfide) (enzyme, human, UniProt P30048 62-256, looked up)
chain: B1 chain
modifications: intermolecular disulfides between Cys-Sp and Cys-Sr of the opposing subunit (two per dimer)
B4: WT Prx3, reduced (enzyme, human, UniProt P30048 62-256, looked up)
chain: B1 chain
B5: WT Prx2, oxidized (disulfide) (enzyme, human, UniProt P32119 1-198, looked up)
chain: MASGNARIGKPAPDFKATAVVDGAFKEVKLSDYKGKYVVLFFYPLDFTFVCPTEIIAFSNRAEDFRKLGCEVLGVSVDSQFTHLAWINTPRKEGGLGPLNIPLLADVTRRLSEDYGVLKTDEGIAYRGLFIIDGKGVLRQITVNDLPVGRSVDEALRLVQAFQYTDEHGEVCPAGWKPGSDTIKPNVDDSKEYFSKHN
modifications: intermolecular disulfides between Cys-Sp and Cys-Sr of the opposing subunit (two per dimer)
B6: CT* Prx2, oxidized (as purified) (enzyme, human, UniProt P32119 1-198, looked up)
chain: B5 chain with G175N, K177T, G179D, D181P
modifications: oxidized form (inter-subunit disulfides)

Assays:
SEC [1] = molecular target: the molecule itself; test: SEC
non-reducing SDS/PAGE = molecular target: the molecule itself; test: non-reducing SDS/PAGE
SEC [2] = molecular target: the molecule itself; test: SEC; remark: listed apart in the source

| Protein | stoichiometry N (SEC [1]) | stoichiometry N (non-reducing SDS/PAGE) | stoichiometry N (SEC [2]) |
| --- | --- | --- | --- |
| B1 | 2 | – | – |
| B2 | – | 2 | – |
| B3 | – | 2 | – |
| B4 | – | – | 2 |
| B5 | 10 | 2 | – |
| B6 | – | 2 | – |
